According to patent US10976314B2, “Device, non-transitory computer-readable storage medium, and method for determining type of target peptide” (SYSMEX CORPORATION, priority 2014, dated 2021):
Like-named read-outs stand apart in the source and are kept apart here. Peptide text beside a SMILES is read from it.

Experiments:
[1] = target: human serum albumin (HSA) (Homo sapiens, UniProt P02768); details: for b value of Equation (I) (dissociation mode: b<0.241 single, b≥0.241 multiple) / Δλ (maximum layer thickness change amount, second information): peptide concentration per Table 5
[2] = cited from earlier work; for Isoelectric point: Table 5; for Isoelectric point pI: Table 1

For (His) 3: HHH, the “b value of Equation (I) (dissociation mode: b<0.241 single, b≥0.241 multiple)” value (shortened to “b value of Equation (I)”) ([1]; HSA sensor chip) was 0.344, the “Δλ (maximum layer thickness change amount, second information)” value ([1]; HSA sensor chip) was 0.027 nm and the “Koff (dissociation rate constant, first information)” value (“Koff” below) ([1]; pH 6.9) was 0.00257 s⁻¹. The Isoelectric point [2] was 7.

In the case of “histidine eicosa peptide (HHHHHHHHHHHHHHHHHHHH; Synthetic His eicosapeptide) [(His) 20]”, the “Isoelectric point pI” value [2] is given as 7.6.

For “His-decapeptide (HHHHHHHHHH; Synthetic His decapeptide) [(His) 10]”, the “Koff” value ([1]; pH 6.9) is given as 0.00073 s⁻¹ and the Isoelectric point [2] is given as 7.4.

In the case of “ACTH15: SEQ ID NO: 11, YSMEHFRWGKPVGKK (listed as Homo sapiens)”, the “Koff” value ([1]; pH 6.9) is listed as 0.01147 s⁻¹, the “Isoelectric point pI” value [2] is listed as 10 and the Isoelectric point [2] is listed as 10.

For “IS 13mer: the 237 to 249th fragments of the amino acid sequence of HSA; SEQ ID NO: 21, AWAVARLSQRFPK (listed as Homo sapiens)”, the “b value of Equation (I)” value ([1]; HSA sensor chip) was 0.756, the “Δλ (maximum layer thickness change amount, second information)” value ([1]; HSA sensor chip) was 0.061 nm and the “Koff” value ([1]; pH 6.9) was 0.01708 s⁻¹. For the same molecule, the Isoelectric point [2] was 12.

For Amyloid β40 peptide [AB40], the “Isoelectric point pI” value [2] is listed as 5.3 and the Isoelectric point [2] is listed as 5.3.

For `NC(N)=NCCC[C@H](NC(=O)[C@H](Cc1ccccc1)NC(=O)[C@@H]1CCCN1C(=O)[C@H](CO)NC(=O)[C@H](Cc1ccccc1)NC(=O)CNC(=O)[C@@H]1CCCN1C(=O)[C@@H]1CCCN1C(=O)[C@@H](N)CCCN=C(N)N)C(=O)O` [Bradykinin] (H-RPPGFSPFR-OH), the “Koff” value ([1]; pH 6.9) was 0.01721 s⁻¹.

For “dynorphin A (YGGFLRRIRPKLK; listed as Homo sapiens)”, the “Koff” value ([1]; HSA sensor chip, peptide concentration during measurement per Table 5 (1-1000 μM), 0.1 M sodium phosphate buffer pH 6.9) is listed as 0.00617 s⁻¹, the “Isoelectric point pI” value [2] is listed as 11.7 and the Isoelectric point [2] is listed as 11.7.

For “inter-α-trypsin inhibitor heavy chain 4 (GESRNRNVHSGSTFFKYYLQGAKIPKPEASFS; listed as Homo sapiens) [ITIH4]”, the “Isoelectric point pI” value [2] is listed as 9.8.

In the case of “ACTH partial peptide at the 1-24 positions [ACTH24]”, the “Isoelectric point pI” value [2] is listed as 10.6.

For brain natriuretic peptide [BNP], the “Isoelectric point pI” value [2] is listed as 11.

For “ELN 11mer: the 548 to 558th fragments of the amino acid sequence of elastin; SEQ ID NO: 20, GVPGLGVGAGV (listed as Homo sapiens)”, the “b value of Equation (I)” value ([1]; HSA sensor chip) was 0, the “Δλ (maximum layer thickness change amount, second information)” value ([1]; HSA sensor chip) was 0.043 nm and the “Koff” value ([1]; pH 6.9) was 0.00016 s⁻¹. For the same molecule, the Isoelectric point [2] was 5.5.

For “fibrinogen α (DEAGSEADHEGTHSTKRGHAKSRPV; listed as Homo sapiens)”, the “Isoelectric point pI” value [2] is given as 6.3.

For “ACTH partial peptide at the 1-41 positions (GPSYSMEHFRWGKPVGKKRRPVKVYPNGAEDESAEAFPLEF; listed as Homo sapiens) [ACTH41]”, the “Isoelectric point pI” value [2] is listed as 8.3.

For “ACTH partial peptide at the 1-39 positions (SYSMEHFRWGKPVGKKRRPVKVYPNAGENESAEAFPLEF; listed as Homo sapiens) [ACTH39]”, the “dissociation mode (third information)” value ([1]; HSA sensor chip, peptide map FIG. 6, peptide 2 μM) is listed as “multiple dissociation mode” and the “Isoelectric point pI” value [2] is listed as 9.3.

For “kininogen (HNLGHGHKHERDQGHGHQR; listed as Homo sapiens)”, the “b value of Equation (I)” value ([1]; HSA sensor chip) was 1.093, the “Δλ (maximum layer thickness change amount, second information)” value ([1]; HSA sensor chip) was 0.082 nm and the “Koff” value ([1]; pH 6.9) was 0.00493 s⁻¹. The “Isoelectric point pI” value [2] was 8.8 and the Isoelectric point [2] was 8.8.

In the case of amyloid β42 peptide [AB42], the “Isoelectric point pI” value [2] is given as 5.3 and the Isoelectric point [2] is given as 5.3.

For “Lys-decapeptide (KKKKKKKKKK; Synthetic Lys decapeptide) [(Lys) 10]”, the “b value of Equation (I)” value ([1]; HSA sensor chip) was 0.669, the “Δλ (maximum layer thickness change amount, second information)” value ([1]; HSA sensor chip) was 0.045 nm and the “Koff” value ([1]; pH 6.9) was 0.0002 s⁻¹. The Isoelectric point [2] was 11.

For arginine decapeptide [(Arg) 10], the “Isoelectric point pI” value [2] is given as 13.

For glucagon, the “Isoelectric point pI” value [2] is given as 6.8.

B1: Lysozyme (protein, listed as Homo sapiens)
chain: KVYGRCELAAAMKRLGLDNFRGYSLGNWVCAAKFESNFNTHATNRNTDGSTDYGILQINSRWWCNDGRTPGSRNLCNIPCSALLSSDTIASVNCAKKIVSDGNGMNAWVAWRKRCKGTDVNAWTRGCRL
For B1, the “b value of Equation (I)” value ([1]; HSA sensor chip) was 0.278, the “Δλ (maximum layer thickness change amount, second information)” value ([1]; HSA sensor chip) was 0.12 nm and the “Koff” value ([1]; pH 6.9) was 0.0066 s⁻¹. For the same molecule, the Isoelectric point [2] was 9.4.
